Source: PMC5610242, “Stapled peptide inhibitors of RAB25 target context-specific phenotypes in cancer” (Nature Communications, 2017)
Bridge positions count the residues as written; N and C are the ends. Square brackets hold non-standard residues; d marks the D form. Ends that are not written are not given here. Peptide text beside a SMILES is read from it. * marks the point of attachment. FITC = O=C1OC2(c3ccc(O)cc3Oc3cc(O)ccc32)c2ccc(NC(=S)*)cc21; Met(O) = CS(=O)CC[C@H](N)C(=O)O; S5 = C=CCCC[C@](C)(N)C(=O)O; Nle = CCCC[C@H](N)C(=O)O; PEG = not defined here; βAla = NCCC(=O)O

T1: RAB11a (activated Q70L mutant) (Homo sapiens, UniProt P62491, Q70L)
T1 construct: GST-RAB11a (1–173, Q70L mutant) in pGEX5x-1; made in house; host or cells: E. coli BL21
T1 sequence (P62491 1-173 Q70L): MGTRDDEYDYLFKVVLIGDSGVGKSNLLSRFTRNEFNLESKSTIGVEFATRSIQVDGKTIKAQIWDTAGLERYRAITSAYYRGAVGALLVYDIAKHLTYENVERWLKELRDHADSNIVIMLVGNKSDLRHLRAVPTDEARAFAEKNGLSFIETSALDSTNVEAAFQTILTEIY

T2: RAB25 (Homo sapiens, UniProt P57735)
T2 construct: GST-RAB25 (1–180) in pET41 Ek/LIC; made in house; host or cells: E. coli BL21
T2 sequence (P57735 1-180): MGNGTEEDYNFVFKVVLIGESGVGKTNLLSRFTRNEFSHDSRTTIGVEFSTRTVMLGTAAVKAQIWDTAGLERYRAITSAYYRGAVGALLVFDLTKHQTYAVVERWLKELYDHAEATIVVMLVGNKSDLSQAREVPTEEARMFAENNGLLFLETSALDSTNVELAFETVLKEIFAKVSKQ

T3: GST-RAB11a (1-173, Q70L mutant) (UniProt P62491 1-173, Q70L)
T3 construct: source: E. coli BL21, purified (glutathione sepharose, Superdex 75 gel filtration)
T3 sequence (looked up): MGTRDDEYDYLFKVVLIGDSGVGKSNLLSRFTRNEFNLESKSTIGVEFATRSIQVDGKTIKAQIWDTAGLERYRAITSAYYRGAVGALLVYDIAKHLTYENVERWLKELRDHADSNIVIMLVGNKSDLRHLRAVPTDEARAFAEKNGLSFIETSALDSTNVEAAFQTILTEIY

T4: GST-RAB25 (1-180) (UniProt P57735 1-180)
T4 construct: RAB25, residues 1-180, in pET41 Ek/LIC; source: E. coli BL21, purified (glutathione sepharose, Superdex 75 gel filtration)
T4 sequence (looked up): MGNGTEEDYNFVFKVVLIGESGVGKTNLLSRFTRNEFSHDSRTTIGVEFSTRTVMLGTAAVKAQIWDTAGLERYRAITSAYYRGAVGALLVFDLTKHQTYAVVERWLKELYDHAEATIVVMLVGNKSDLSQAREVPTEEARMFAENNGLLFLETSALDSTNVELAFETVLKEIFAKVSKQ

T5: His6-RAB25 (1–180) (UniProt P57735 1-180)
T5 chain: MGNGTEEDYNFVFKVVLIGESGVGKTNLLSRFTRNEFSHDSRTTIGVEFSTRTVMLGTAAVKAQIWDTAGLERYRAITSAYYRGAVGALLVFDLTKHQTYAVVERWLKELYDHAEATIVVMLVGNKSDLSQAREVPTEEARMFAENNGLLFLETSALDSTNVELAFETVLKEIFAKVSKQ


Columns and labels:
[1] = molecular target: T1, RAB11a (activated Q70L mutant); test: Fluorescence polarization binding of FITC-labeled RFP peptides to RAB11a; conditions: FP
Method: (§1) Fluorescence polarization assays were performed with for GST-RAB25 and GST-RAB11a to quantify binding to FITC-labeled unmodified and stapled RFP peptides. Initial fluorescence polarization measurements for RFP1−RFP13 were made by incubating FITC-RFP peptides (25 nM) with threefold dilutions of a given protein in FP buffer, consisting of 20 mM Tris pH 8.0, 150 mM NaCl, 5 mM MgCl2, 2 mM DTT, 10 μM GTP and 2% glycerol. Dilutions and incubations were performed in 96-well, black flat-bottom plates (Nunc) to a total volume of 100 μL, and equilibrated at room temperature for 30 min. Polarization was measured on a Spetramax-M5 multi-label plate reader (Molecular Devices) with λ ex = 485 nm and λ em = 525 nm. Polarization values were determined using the equation: P = (V − H)/(V + H), where P denotes polarization, V denotes vertical emission intensity and H represents horizontal emission intensity. Fraction bound was calculated using the equilibrium maximum polarization value obtained for a given protein among ligands, to which background-subtracted fluorescence polarization values were internally normalized. Fluorescence polarization measurements for FITC-RFP14, 24, 26, 31, and 32 were performed as detailed above with the exception that 10 nM FITC-ligand was used.

RAB25 = molecular target: T2, RAB25; test: Fluorescence polarization binding of FITC-labeled RFP peptides to RAB25; conditions: FP, 30 min room temperature
Method: as §1

[2] = molecular target: T3, GST-RAB11a (1-173, Q70L mutant); test: fluorescence polarisation; as for RFP1-13 but FITC-ligand 10 nM, with threefold dilutions of GST-RAB protein; 20 mM Tris pH 8.0, 150 mM NaCl, 5 mM MgCl2, 2 mM DTT, 10 µM GTP, 2% glycerol; room temperature, 30 min; apparent Kd from a sigmoidal (4-parameter) fit, 95% confidence interval; conditions: both partners purified
[3] = molecular target: T3, GST-RAB11a (1-173, Q70L mutant); test: fluorescence polarisation; FITC-peptide 25 nM with threefold dilutions of GST-RAB protein; 20 mM Tris pH 8.0, 150 mM NaCl, 5 mM MgCl2, 2 mM DTT, 10 µM GTP, 2% glycerol; room temperature, 30 min; apparent Kd from a sigmoidal (4-parameter) fit, 95% confidence interval; conditions: both partners purified
GST-RAB25 (1-180) [4] = molecular target: T4, GST-RAB25 (1-180); test: as above; conditions: both partners purified
His6-RAB25 (1–180) = molecular target: T5, His6-RAB25 (1–180); test: competition with bio-RFP14 (ALPHAscreen)
GST-RAB25 (1-180) [5] = molecular target: GST-RAB25 (1-180) (UniProt P57735); test: fluorescence polarisation; FITC-peptide 25 nM with threefold dilutions of GST-RAB protein; 20 mM Tris pH 8.0, 150 mM NaCl, 5 mM MgCl2, 2 mM DTT, 10 µM GTP, 2% glycerol; room temperature, 30 min; apparent Kd from a sigmoidal (4-parameter) fit, 95% confidence interval
GST-RAB25 (1-180) [6] = molecular target: T4, GST-RAB25 (1-180); test: fluorescence polarisation; as for RFP1-13 but FITC-ligand 10 nM, with threefold dilutions of GST-RAB protein; 20 mM Tris pH 8.0, 150 mM NaCl, 5 mM MgCl2, 2 mM DTT, 10 µM GTP, 2% glycerol; room temperature, 30 min; apparent Kd from a sigmoidal (4-parameter) fit, 95% confidence interval; conditions: both partners purified

| Kd [3] | Kd (GST-RAB25 (1-180) [4]) | Molecule | further results |
| --- | --- | --- | --- |
| > 5000 nM | > 5000 nM | {FITC-PEG-βAla}-RINFRLQ[S5]YID[S5]IIVAIMETNPSILEVK (staple 8-12; reading uncertain) [FITC-RFP10 (FIP3-derived stapled peptide, 'YID' staple)] | – |
| 80 nM | 40 nM | {FITC-PEG-βAla}-RINFRLQD[S5]IDR[S5]IVAIMETNPSILEVK (staple 9-13; reading uncertain) [FITC-RFP13 (FIP3-derived stapled peptide, 'IDR' staple)] | – |
| 2400 nM | 1200 nM | {FITC-PEG-βAla}-RQVRELED[S5]IDR[S5]LVRVMEETPNILRIPR (staple 9-13; reading uncertain) [FITC-RFP9 (FIP1-derived stapled peptide, 'IDR' staple)] | – |
| 7 nM | 50 nM | {FITC-PEG-βAla}-RINFRLQDYID[S5]IIV[S5]IMETNPSILEVK (staple 12-16; reading uncertain) [FITC-RFP11 (FIP3-derived stapled peptide, 'IIV' staple)] | – |
| 20 nM | 30 nM | {FITC-PEG-βAla}-RINFRLQDYIDRIIV[S5]IME[S5]NPSILEVK (staple 16-20; reading uncertain) [FITC-RFP12 (FIP3-derived stapled peptide, 'IME' staple)] | – |

Second part, the molecule before the results:

| Molecule | Kd [3] | Kd (GST-RAB25 (1-180) [4]) | further results |
| --- | --- | --- | --- |
| RFP5: peptide with oxidation of a methionine involved in binding, a separable byproduct of chemical synthesis ({FITC-PEG}-KQEEINFRLQDYIDRIIVAI[Met(O)]ETNPSILEVK; reading uncertain) | – | – | loss of binding affinity for RAB11a on methionine oxidation ([1]; relative to non-oxidised peptide): ~ fivefold |
| CC[C@H](C)[C@H](NC(=O)[C@H](CCCNC(=N)N)NC(=O)[C@H](C)NC(=O)[C@H](C)NC(=O)[C@]1(C)CCCC=CCCC[C@](C)(NC(=O)[C@H](CC(N)=O)NC(=O)[C@H](CCC(N)=O)NC(=O)[C@H](CC(C)C)NC(=O)[C@H](CCCNC(=N)N)NC(=O)[C@H](Cc2ccccc2)NC(=O)[C@H](CC(N)=O)NC(=O)[C@@H](NC(=O)[C@H](CCCNC(=N)N)NC(=O)CCNC(=O)[C@@H](N)Cc2c[nH]c3ccccc23)[C@@H](C)CC)C(=O)N[C@@H]([C@@H](C)CC)C(=O)N[C@@H](CC(=O)O)C(=O)N[C@@H](CCCNC(=N)N)C(=O)N1)C(=O)N[C@@H](C)C(=O)N[C@@H](CCC(=O)O)C(=O)N[C@H](C(=O)N[C@@H](CC(N)=O)C(=O)N1CCC[C@H]1C(=O)N[C@@H](CO)C(=O)N[C@H](C(=O)N[C@@H](CC(C)C)C(=O)N[C@@H](CCCNC(=N)N)C(=O)N[C@H](C(=O)N[C@@H](CCCCN)C(N)=O)C(C)C)[C@@H](C)CC)[C@@H](C)O [RFP32] (H-W[βAla]RINFRLQN[S5]IDR[S5]AARIAETNPSILRVK-NH2; staple 11-15) | – | – | Kd (RAB25; 10 nM FITC-ligand, GST-RAB25, FP buffer pH 8.0 with 10 μM GTP, mean with 95% C.I., triplicate, read-out: apparent Kd (95% C.I.) RAB25): > 5000 nM; Kd ([1]; 10 nM FITC-ligand, GST-RAB11a (1–173, Q70L), FP buffer pH 8.0 with 10 μM GTP, 30 min room temperature, mean with 95% C.I., triplicate, read-out: apparent Kd (95% C.I.) RAB11a): > 5000 nM |
| FIP2: unmodified Class-I peptide encompassing the RAB-binding domain of FIP2, FITC-labeled ({FITC-PEG}-ERDTHIRELEDYIDNLLVRVMEETPSILRVPR; reading uncertain) | – | – | binding to RAB25 (in words) (RAB25; 25 nM FITC-RFP peptide): essentially no binding; binding to RAB11a (in words) ([1]; 25 nM FITC-RFP peptide, 30 min room temperature): essentially no binding |
| {FITC-PEG-βAla}-RQVRELENYIDRLLV[S5]V[Nle]E[S5]TPNILRIPR (staple 16-20; reading uncertain) [FITC-RFP14 (optimized stapled peptide, 'IME' staple)] | – | – | Kd [2]: 320 nM |
| {FITC-PEG}-ERDTHIRELEDYIDNLLVRVMEETPSILRVPR (reading uncertain, limits worked out from the printed L485, V486 and M489; also called fRFP2; FIP2 peptide; source: synthetic peptide (Fmoc solid phase, HPLC purified)) [FITC-RFP2 (unmodified FIP2 RAB-binding domain peptide)] | > 5000 nM | > 5000 nM | – |
| KQEEINFRLQDYIDRIIVAIMETNPSILEVK [FIP3 peptide (residues 726–756)] | – | – | IC50 (His6-RAB25 (1–180)): > 10000 nM |
| {FITC-PEG}-KQEEINFRLQDYIDRIIVAI[Met(O)]ETNPSILEVK (reading uncertain, also called fRFP5; source: synthetic peptide (separable byproduct of chemical synthesis, HPLC purified)) [FITC-RFP5 (FIP3 RAB-binding domain peptide with oxidised methionine)] | > 5000 nM | – | Kd (GST-RAB25 (1-180) [5]): > 5000 nM |
| {FITC-PEG}-EQEEINFRLRQYMDKIILAILDHNPSILEIKH (reading uncertain, also called fRFP4; FIP4 peptide; source: synthetic peptide (Fmoc solid phase, HPLC purified)) [FITC-RFP4 (unmodified FIP4 RAB-binding domain peptide)] | 930 nM | 2300 nM | – |
| {FITC-PEG-βAla}-RINFRLQN[S5]IDR[S5]IVRIFETNPSILRVK (staple 9-13; reading uncertain) [FITC-RFP24 (optimized stapled peptide, 'IDR' staple)] | – | – | Kd [2]: 560 nM; Kd (GST-RAB25 (1-180) [6]): 160 nM |
| {FITC-PEG}-KQEEINFRLQDYIDRIIVAIMETNPSILEVK (reading uncertain, also called fRFP3; FIP3 peptide; source: synthetic peptide (Fmoc solid phase, HPLC purified)) [FITC-RFP3 (unmodified FIP3 RAB-binding domain peptide)] | 2300 nM | – | Kd (GST-RAB25 (1-180) [5]): > 5000 nM |
| {FITC-PEG-βAla}-RQVRELEDYIDRLLV[S5]VME[S5]TPNILRIPR (staple 16-20; reading uncertain) [FITC-RFP8 (FIP1-derived stapled peptide, 'IME' staple)] | 40 nM | 170 nM | – |
| {FITC-PEG-βAla}-RINFRLQN[S5]IDR[S5]IVRI[Nle]ETNPSILRVK (staple 9-13; reading uncertain) [FITC-RFP26 (optimized stapled peptide, 'IDR' staple)] | – | – | Kd [2]: 90 nM; Kd (GST-RAB25 (1-180) [6]): 20 nM |
| {FITC-PEG-βAla}-RQVRELE[S5]YID[S5]LLVRVMEETPNILRIPR (staple 8-12; reading uncertain) [FITC-RFP6 (FIP1-derived stapled peptide, 'YID' staple)] | > 5000 nM | > 5000 nM | – |
| {FITC-PEG}-KKEFQVRELEDYIDNLLVRVMEETPNILRIPA (reading uncertain, also called fRFP1; FIP1 peptide; source: synthetic peptide (Fmoc solid phase, HPLC purified)) [FITC-RFP1 (unmodified FIP1 RAB-binding domain peptide)] | > 5000 nM | > 5000 nM | – |
| {FITC-PEG-βAla}-RQVRELEDYID[S5]LLV[S5]VMEETPNILRIPR (staple 12-16; reading uncertain) [FITC-RFP7 (FIP1-derived stapled peptide, 'IIV' staple)] | 110 nM | 510 nM | – |
